Data reported in patent US20230295324A1 (published 2023).
Where two headings read alike, the source gives them in different places. One block for each binder: values may come before it.

Assays:
[1] = target: T1, human OX40 on cells (CHO-K1/hu OX40) (human, UniProt P43489 29-277); experiment: FACS, CHO-K1/hu OX40 cells
T1 construct: whole, on cells; Also used here for OX40 on the HEK293/OX40/NF-kb reporter cells and on human T cells in the functional assays; also called CHO-K1/OX40; human OX40 cells
T1 sequence (looked up): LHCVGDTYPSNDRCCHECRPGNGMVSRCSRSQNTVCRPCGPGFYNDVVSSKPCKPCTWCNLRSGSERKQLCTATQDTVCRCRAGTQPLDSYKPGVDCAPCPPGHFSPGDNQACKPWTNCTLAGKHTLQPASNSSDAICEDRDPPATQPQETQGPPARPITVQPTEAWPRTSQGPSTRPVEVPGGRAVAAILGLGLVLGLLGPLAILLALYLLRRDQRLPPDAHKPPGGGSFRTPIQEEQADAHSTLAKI
Experimental: This example is intended to investigate the in vitro binding activity of OX40×TAA bispecific antibodies obtained in Example 9 to human OX40. The antibody binding assay at the cellular level was performed using a CHO-K1 cell strain overexpressing human OX40 (CHO-K1/hu OX40). Briefly, CHO-K1/hu OX40 cells were digested, resuspended in an F12K complete medium, and washed with PBS, and the cell density was adjusted to 1×10⁶ cells/ml with PBS. The cells were seeded in a 96-well V-bottom plate (Corning, #3894) at 100 μL/well, followed by the addition of test antibodies diluted in a 3-fold gradient at concentrations that were 2 times the final concentrations at 100 μL/well. The cells were incubated at 4° C. for 1 h away from light. Thereafter, the cells in each well were rinsed twice with 100 μL of pre-cooled PBS, and centrifuged at 500 g at 4° C. for 5 min, and then the supernatant was discarded. […] The plate was incubated away from light at 4° C. for 30 min. The cells in each well were rinsed twice with 100 μL of pre-cooled PBS, and centrifuged at 500 g at 4° C. for 5 min, and then the supernatant was discarded. Finally, the cells in each well were resuspended in 200 μL of pre-cooled PBS, and the fluorescence signal values were read using NovoCyte flow cytometer (ACEA Biosciences).

[2] = target: T2, human PSMA on LNCAP cells (human, UniProt Q04609 1-750); experiment: FACS, LNCAP cells (human PSMA)
T2 construct: whole, on cells
Experimental: (§1) This example is intended to investigate the in vitro binding activity of OX40×TAA bispecific antibodies obtained in Example 9 to tumor-associated antigens (TAAs). […] Briefly, those cells were digested, resuspended in a complete medium, and washed with PBS, and the cell density was adjusted to 1×10⁶ cells/ml with PBS. The cells were seeded in a 96-well V-bottom plate (Corning, #3894) at 100 μL/well, and centrifuged, and then the supernatant was discarded. Then, the test antibodies diluted in a 3-fold gradient were added at 100 μL/well. The cells were incubated at 4° C. for 1 h away from light. Thereafter, the cells in each well were rinsed twice with 100 μL of pre-cooled PBS, and centrifuged at 500 g at 4° C. for 5 min, and then the supernatant was discarded. […] The plate was incubated away from light at 4° C. for 30 min. The cells in each well were rinsed twice with 100 μL of pre-cooled PBS, and centrifuged at 500 g at 4° C. for 5 min, and then the supernatant was discarded. Finally, the cells in each well were resuspended in 200 μL of pre-cooled PBS, and the fluorescence signal values were read using NovoCyte flow cytometer (ACEA Biosciences).

[3] = target: T3, human PD-L1 on MDA-MB-231 cells (human, UniProt Q9NZQ7 19-290); experiment: FACS, MDA-MB-231 cells (human PD-L1)
T3 construct: whole, on cells
Experimental: as §1

[4] = target: T4, human OX40 protein (Acro biosystem, #OX0-H5224) (human, UniProt P43489 29-216); experiment: BLI, antibody on ProA sensor, 1:1 global fit
T4 construct: Bought recombinant protein
T4 sequence (looked up): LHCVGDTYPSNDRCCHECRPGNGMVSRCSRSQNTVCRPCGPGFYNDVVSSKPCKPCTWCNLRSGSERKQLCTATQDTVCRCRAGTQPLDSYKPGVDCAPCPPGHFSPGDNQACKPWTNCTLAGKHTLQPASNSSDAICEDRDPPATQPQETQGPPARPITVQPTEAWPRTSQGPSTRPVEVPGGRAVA
Experimental: (§2) The binding kinetics between the antigen and the antibody was analyzed by the Biolayer Interferometry (BLI) technique using an Octet Red 96e molecular interaction analyzer (Fortebio).
(§3) The association and dissociation signals between the OX40 antibodies and OX40 proteins were recorded by Octet Red 96 in real time. When data analysis was performed using Octet Data Analysis software (Fortebio, version 11.0), 0 nM was used as a reference hole, and reference subtraction was performed; the “1:1 Global fitting” method was selected to fit the data, and the kinetics parameters of the binding of antigens to antigen-binding proteins were calculated, with kon(1/Ms) values, kdis(1/s) values and KD(M) values obtained.

[5] = target: T5, cynomolgus monkey OX40 protein (Novoprotein, #CB17) (cynomolgus monkey); experiment: BLI, antibody on ProA sensor, 1:1 global fit
T5 construct: Bought recombinant protein; also called cyno OX40
Experimental: as §2, §3

[6] = target: T1, human OX40 on cells (CHO-K1/hu OX40); experiment: cell-based or functional assay
[7] = target: T5, cynomolgus monkey OX40 protein …; experiment: ELISA, coated cyno OX40 protein
Experimental: (§4) This example is intended to investigate the in vitro binding activity of the anti-OX40 HCAb monoclonal antibodies prepared in Example 1 to human and cynomolgus monkey OX40 proteins. The antibody binding assay at the protein level was performed using a human OX40 protein (Acro biosystem, #OX0-H5224) and a cynomolgus monkey OX40 protein (Novoprotein, #CB17). Briefly, a 384-well plate (PerkinElmer, #6007509) was coated with 1 μg/mL human OX40 protein and a cynomolgus monkey OX40 protein dissolved in PBS at 20 μL/well, and incubated at 4° C. overnight. The next day, the 384-well plate was washed three times with PBS containing 0.05% Tween (MEDICAGO, #09-9410-100), and blocked with PBS containing 2% milk (Bio-Rad, #170-6404) at 37° C. for 1 h. […] The plate was added with a stop buffer (BBI life sciences, #E661006-0200) at 20 μL/well, and read for OD₄₅₀₋₆₅₀ values using a plate reader (Molecular Devices, model: SpectraMax Plus). The values were analyzed with Graphad 8.0 and plotted.

[8] = target: T1, human OX40 on cells (CHO-K1/hu OX40); experiment: cell-based or functional assay; remark: listed apart in the source
[9] = target: T4, human OX40 protein (Acro biosystem, …); experiment: ELISA, coated human OX40 protein
Experimental: as §4

[10] = target: T1, human OX40 on cells (CHO-K1/hu OX40); experiment: FACS, CHO-K1/hu OX40 cells; remark: listed apart in the source
Experimental: This example is intended to investigate the in vitro binding activity of anti-human OX40 HCAb monoclonal antibodies to human OX40. The antibody binding assay at the cellular level was performed using a stable CHO-K1 cell strain overexpressing human OX40 (CHO-K1/hu OX40). Briefly, the CHO-K1/hu OX40 cells were digested, resuspended in an F12K complete medium and washed once with PBS. The cell density was adjusted to 1×10⁶ cells/mL with PBS. The cells were seeded in a 96-well V-bottom plate (Corning, #3894) at 100 μL/well, and centrifuged, and then the supernatant was discarded. Then, the test antibodies diluted in a 3-fold gradient at concentrations that were 2 times the final concentrations were added at 100 μL/well. The cells were incubated at 4° C. for 1 h away from light. Thereafter, the cells in each well were rinsed twice with 100 μL of pre-cooled PBS, and centrifuged at 500 g at 4° C. for 5 min, and then the supernatant was discarded. […] The plate was incubated away from light at 4° C. for 30 min. The cells in each well were rinsed twice with 100 μL of pre-cooled PBS, and centrifuged at 500 g at 4° C. for 5 min, and then the supernatant was discarded. Finally, the cells in each well were resuspended in 200 μL of pre-cooled PBS, and the fluorescence signal values were read using a BD FACS CANTOII.

[11] = target: T1, human OX40 on cells (CHO-K1/hu OX40); experiment: FACS, blocking of biotin-human OX40L on CHO-K1/hu OX40 cells
Experimental: Briefly, the CHO-K1/hu OX40 cells were digested and resuspended in an F-12K complete medium, and the cell density was adjusted to 1×10⁶ cells/mL. The cells were seeded in a 96-well V-bottom plate (Corning, #3894) at 100 μL/well, and centrifuged, and then the supernatant was discarded. The test antigen-binding proteins diluted in a 3-fold gradient at concentrations that were 2 times the final concentrations were added at 100 μL/well, and the mixture was well mixed, wherein the antigen-binding protein had the highest final concentration of 100 nM, and a total of 8 concentrations were obtained. […] The cells were incubated at 4° C. for 1 h away from light. Thereafter, the cells were centrifuged at 4° C. for 5 min, and then the supernatant was discarded. […] The cells in each well were rinsed twice with 100 μL of pre-cooled PBS, and centrifuged at 500 g at 4° C. for 5 min, and then the supernatant was discarded. A 1:200 fluorescent secondary antibody PE Streptavidin (BD Biosciences, #554061) was added at 100 μL/well, and the cells were incubated away from light at 4° C. for 30 min. The cells in each well were rinsed twice with 200 μL of pre-cooled PBS, and centrifuged at 500 g at 4° C. for 5 min, and then the supernatant was discarded. Finally, the cells in each well were resuspended in 200 μL of precooled PBS. Fluorescence signal values were read using BD FACS CANTOII, and IC50 was calculated. Inhibition rate %={average MFI of non-blocking control well−MFI value of OX40 antibody}/{(average MFI of non-blocking control well)−average MFI of 100% blocking control well)}×100%.

T2 sequence (Q04609 whole entry): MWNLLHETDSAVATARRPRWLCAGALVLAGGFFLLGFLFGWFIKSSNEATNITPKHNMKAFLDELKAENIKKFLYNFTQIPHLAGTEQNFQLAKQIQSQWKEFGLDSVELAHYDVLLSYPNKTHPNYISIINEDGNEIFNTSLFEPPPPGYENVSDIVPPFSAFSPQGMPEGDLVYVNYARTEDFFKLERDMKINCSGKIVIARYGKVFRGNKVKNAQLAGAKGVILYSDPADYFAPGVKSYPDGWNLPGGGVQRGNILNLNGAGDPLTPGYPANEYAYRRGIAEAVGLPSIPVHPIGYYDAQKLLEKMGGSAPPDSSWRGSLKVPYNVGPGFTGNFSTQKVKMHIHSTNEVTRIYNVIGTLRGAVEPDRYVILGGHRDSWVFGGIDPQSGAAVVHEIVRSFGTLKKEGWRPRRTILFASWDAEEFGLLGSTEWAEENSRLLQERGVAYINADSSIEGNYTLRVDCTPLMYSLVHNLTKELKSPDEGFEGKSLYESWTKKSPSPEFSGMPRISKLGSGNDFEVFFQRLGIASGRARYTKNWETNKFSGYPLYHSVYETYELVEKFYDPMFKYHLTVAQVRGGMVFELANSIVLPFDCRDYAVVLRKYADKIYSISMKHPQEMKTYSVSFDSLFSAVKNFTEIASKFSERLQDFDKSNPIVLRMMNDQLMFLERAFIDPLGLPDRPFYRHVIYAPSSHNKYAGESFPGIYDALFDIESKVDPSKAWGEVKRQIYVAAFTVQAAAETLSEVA
T3 sequence (Q9NZQ7 19-290): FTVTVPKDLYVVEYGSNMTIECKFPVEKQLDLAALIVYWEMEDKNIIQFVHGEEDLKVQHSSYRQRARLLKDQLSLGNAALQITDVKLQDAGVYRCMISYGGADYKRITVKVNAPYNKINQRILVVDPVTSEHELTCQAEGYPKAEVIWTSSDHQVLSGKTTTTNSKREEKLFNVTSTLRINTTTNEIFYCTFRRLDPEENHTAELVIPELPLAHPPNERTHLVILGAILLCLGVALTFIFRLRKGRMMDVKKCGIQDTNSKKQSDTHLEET

B2: PR000265 (antibody, human IgG1, kappa, N297A, V domains shown)
VH: EVQLVESGGGLVQPGGSLRLSCAASGFTFSSYWMSWVRQAPGKGLEWVANIKQEGSEKYYVDSVKGRFTISRDNAKNSLYLQMNSLRAEDTAVYYCARDRAVAGAFDIWGQGTMVTVSS
VL: DIQMTQSPSTLSASVGDRVTVTCRASQSIYIWLAWYQQKPGKAPNLLIYKASSLETGVPSRFSGSGSGTEFTLTISSLQPDDFATYYCQQYYGSSRTFGQGTKVEIKR
notes: H2L2 parental antibody against PD-L1; also called anti-PD-L1 monoclonal antibody; H2L2 antibody
EC50 [3]: 0.605 nM

B4: PR001331 (antibody, human IgG1, kappa, V domains shown)
VH: QVQLVESGGGVVQPGRSLRLSCSASGFTFINYGMNWVRQAPGKGLEWVAVIWYDGSNKYYADSVRGRFTISRDNSKNTLYLQMNSLRAEDTAVYYCARGPGYGGHSDAFDIWGQGTMVTVSS
VL: DIQMTQSPSSLSASIGDRVTITCRASQSINSYLNWYQQKPGKAPKLLIYTASSLLSGVPSRFSASGSWTDFSLTISSLQPEDFATYYCQQSFSTPYTFGQGTNLEIKR
notes: H2L2 parental antibody against PSMA; also called anti-PSMA H2L2 antibody
EC50 [2]: 2.58 nM

B5: PR000327 (antibody, V domains shown)
VH: QVQLVESGGGLVKPGESLRLSCAASGFTFSDYYMYWVRQAPGKGLEWVAIISDGGYYTYYSDIIKGRFTISRDNAKNSLYLQMNSLKAEDTAVYYCARGFPLLRHGAMDYWGQGTLVTVSS
VL: DIQMTQSPSSLSASVGDRVTITCKASQNVDTNVAWYQQKPGQAPKSLIYSASYRYSDVPSRFSGSASGTDFTLTISSVQSEDFATYYCQQYDSYPYTFGGGTKLEIK
EC50 [2]: 3.02 nM

The remaining lines, values ahead:

EC50 [1]: 4.96 nM
Maximum MFI [1]: 287000 MFI
EC50 [2]: 6.7 nM
B1: PR004284 (bispecific antibody, human IgG1, kappa, L234A L235A)
light: DIQMTQSPSSLSASIGDRVTITCRASQSINSYLNWYQQKPGKAPKLLIYTASSLLSGVPSRFSASGSWTDFSLTISSLQPEDFATYYCQQSFSTPYTFGQGTNLEIKRTVAAPSVFIFPPSDEQLKSGTASVVCLLNNFYPREAKVQWKVDNALQSGNSQESVTEQDSKDSTYSLSSTLTLSKADYEKHKVYACEVTHQGLSSPVTKSFNRGEC
heavy: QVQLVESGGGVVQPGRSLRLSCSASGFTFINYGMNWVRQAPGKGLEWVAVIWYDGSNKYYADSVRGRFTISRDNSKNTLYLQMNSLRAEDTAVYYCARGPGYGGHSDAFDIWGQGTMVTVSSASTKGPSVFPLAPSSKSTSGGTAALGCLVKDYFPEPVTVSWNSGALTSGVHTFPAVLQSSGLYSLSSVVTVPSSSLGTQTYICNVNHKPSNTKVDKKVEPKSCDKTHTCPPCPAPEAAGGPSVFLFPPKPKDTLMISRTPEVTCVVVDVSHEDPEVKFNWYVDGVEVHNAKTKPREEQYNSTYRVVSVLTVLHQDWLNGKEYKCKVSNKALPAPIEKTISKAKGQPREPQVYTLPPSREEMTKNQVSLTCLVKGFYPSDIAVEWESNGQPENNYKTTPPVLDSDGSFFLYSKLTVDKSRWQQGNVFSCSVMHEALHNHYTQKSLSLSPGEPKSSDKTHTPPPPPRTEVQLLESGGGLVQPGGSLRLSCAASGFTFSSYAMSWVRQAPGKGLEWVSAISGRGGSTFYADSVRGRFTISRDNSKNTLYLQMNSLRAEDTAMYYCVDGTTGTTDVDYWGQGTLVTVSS
notes: IgG-VH tetravalent symmetric structure: PR001331 IgG (anti-PSMA) with the VH of PR002067 via linker H1_15-RT; human IgG1 Fc (L234A, L235A); also called PSMAxOX40 bispecific antibody

Kd [4]: 8.71 nM
koff [4]: 0.000387 s⁻¹
kon [4]: 44400 M⁻¹ s⁻¹
Kd [5]: 22.7 nM
koff [5]: 0.00097 s⁻¹
kon [5]: 42700 M⁻¹ s⁻¹
EC50, HEK293/OX40/NF-kb luciferase reporter [6]: 5.45 nM
Maximum fluorescence signal value, HEK293/OX40/NF-kb luciferase reporter [6]: 147000 luminescence
EC50 [7]: 0.37 nM
Maximum OD [7]: 2.44 OD
EC50, IFN-γ release by human T cells with OKT3 and CHO-K1-CD32b cells [8]: 0.031 nM
Maximum IFN-γ release value [8]: 1870
EC50 [9]: 0.118 nM
Maximum OD [9]: 2.47 OD
EC50 [10]: 4.67 nM
Maximum MFI [10]: 3010 MFI
IC50 [11]: 67.6 nM
Maximum inhibition rate (%) [11]: 58%
B3: PR002066 (antibody, human IgG1, V domains shown)
VH: EVQLLESGGGLVQPGGSLRLSCIASGFTFSSYAMSWVRQAPGKGLEWVSAISGRGGSTFYADSVRGRFTISRDNSKNTLYLQMNSLRAEDTAVYYCANGMTGTTDVDYWGQGTQVTVSS
notes: no light chain; also called anti-OX40 HCAb antibody
